experiment: soluble fraction after stress (log2 fold change); higher = more stays soluble; pooled small domains, quantitative proteomics; conditions: stress: 50 degC
Summary of the method: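 Custom libraries of small protein domains were pooled and measured in a high-throughput format, with quantitative proteomics as the read-out. Each library was stressed at 50°C. The value is the log2 fold change in the amount of each protein that stays soluble after stress, used as a measure of aggregation propensity; higher values mean more of the protein stays soluble.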

Row | Sequence | soluble fraction (log2)
1 | HMSEITMMQMEIPEGHNWENRLVKDVSMPTGSLAVMIKRHGETLIPGGDTRILAGDTIVLSVPAYESG | -0.0716
2 | HMITTWAGKATTDVYGRVDANPKADAVLVIKTGWTVQVVGSKTAPDGGTWYKLIYNGKTMYANSKFIVK | -1.16
3 | HMAGPAGASEVANARDGDDETPLHMAARGGYPGIVRMLLAAGAKADAKSAAGLFPWNYAEDGSELHALLPR | 0.0684
4 | HMKQIEEIIARYTNENTPLMMILSDVQREYGYIPLDVQELISEKTGIPVAEIYGVVTFYSFFSL | -0.572
5 | HMSSVTGMERFLSSGAVKGIGKTMAARIVEHFGTETMTVLESFPERLAEVPGIGAKKAEAIGQSYSEISD | 0.174
6 | HMSAGYTYQNYQQDLKSGNVQNIHIYLSEEMYSGNVKVIYKNNKSVTFTVTDVTIAEAEARQVGISPIIYE | -0.1
7 | HMEGSRASMDGQVPGKTSYLEWLARQPAQRQDQVLGAERGRLFRAGEIDLADMFTDKGEWISLERLKQLS | 0.221
8 | HMSDAKKRAFSKDEILYSLKNRPFTSFDIESLFDDESKKTFIGLLDKGEISEKKVAGTIFYYLR | -0.0659
9 | HMNTDIHRLLDEAFVRVDMTPDAQHLKEEIRANLVARVDELEASGVPSADAARRAIAELGDVRELL | 0.17
10 | HMNYTYTVPEGIRYLRADKALALAFPDHSRTALQRAFDSGLVTLRGVAIKRDQSVTALDTLEFAMPDI | -0.81
11 | HMIDPHGSLTLDLRPRDARVEIIDSNKTYKPGVRLPMGEYAIAVSRRGYISETKRINIEYGDNRERVAL | 0.0829
12 | HMAIADQPISAEHFDKLRQVLNSNTQETIASAKQHWASISNNAEFTNENVTRTLLEEMLAFIKSAS | 0.307
13 | HMALTARDLGLTHRQADVLHLVLQGKPVKLIARDLGLAEGTVKSHVSAVLRALNVTTRTQAIVAAGRLGLM | -1.92
14 | HMSPEVEEISIDHLKAGMRILSDLRLPNGTLVAPKGSVVDAHFIKIVENYVISYFGNPFPDRIKVIM | -1.4
15 | HMSLGPNAYGKPATALNILRETVMGKELFDHAFKTYSKRWMFKHPSPEDFFRTMEDASAVDLDWFWR | -0.239
16 | HMKIPGIGDVYAILARVYSGPQFTWIEAGFPEDDTKAYSYLHTAIRKGSAIAILQAMRTSGALTPTIEKE | -0.444
17 | HMDPAFAQHHDRALSILHSRGYEVHDSDTDLHWARPVLEFEAYKGSLEYKIVMSYPDLNIIEERVD | -1.06
18 | HMGTPEQSAQFEQVLEELKNVPGPVMKAMQRAQDIYGYLPIEIQSRIGQAFGVSLEEVYGIATFYSQFNL | -1.68
19 | HMNDILETISNQIRDLRVSKKITQQELAERTNLSVPYISQIENGHRNISLETFIKIVDALDIPLSDFFLP | -1.03
20 | HMILPKFNQLLGQMGENIKLARKRRKLTAVQVSERAGIARSTLYLIEKGDASVSLGAYFNVLRVLG | -1.46
21 | HMRAKPLILLDGREISAEELFSLDKNSIKSIEVLKDETALAQYGEKAKNGVVLVVTKSAAAS | 0.246
22 | HMVAEPTYGRTTDVLNIRSGPSTDDERIGQLSRGAVVTILEEKDGWYRLQRGYISADYVTQISAEEASNS | -0.221
23 | HMMTDAEKTFIFFSHLSSVEDHIAYGDKQFYMSLFWQHENKRELSSSQLYHLERLYNKYSMEEIEKKEEFS | -0.78
24 | HMHHGALKQALLDETARILAEEGESALSLRRLASNLGVSRTAPYNHFDNKDALLSAVAEEGFRR | -0.032
25 | HMRILGIDPGSVVTGYGVIDKSGNYLRHVLHGEIKPHKGYLLSEVLMDIFSKLSAVIVETNPQSV | -0.0179
26 | HMDKEVLYVTVNDKKVKLDGKNHIFIDIFNYIDFDIKKPNGSIVLKLNGKNAGYMDEIKDGDKIEIYWDK | 0.0969
27 | HMGAGLLEPEPLKIEIQETQERLQKLQKALERDTETADSKERIKRAIEAHKARISQLQGLIE | 0.0635
28 | HMNREEKKALTRRQIIDVATRLFRQHGIHNTDLKTIATEAGVSVVTFYKYFDSKEALIGTIAAEQ | -0.281

Row | Sequence | soluble fraction (log2)
29 | HMLETHRRRQIILSLLRESGMLDVDEVAARLVVSPNTIRNDFNALAAEGLLRRIRGGATLAEP | -0.349
30 | HMLIDSEILKKTNKITIFLIYAFFSEYLINKEKKKILIGEYIKLSKDFLTIEEVKYFNHLLDDISK | 0.0074
31 | HMTPVIINESGGDQDTRIEGLNDNNLLYVDASTDRVGVGVATPTQKLDVNGDVAISGGSLYLSQ | -0.00396
32 | HMKEPPTLEEIKNYFASKLSTELESEKFFNYFESNGWLVGGKTPMKNWQSAANNWLINMSKFN | -0.47
33 | HMKEILVGVEPLSKKQIIIKKGIKGRSDYIIFEKKNYGLPENLKPEEVSIEIALKIIDEKKKRKA | -1.23
34 | HMNLLDYTTLYVTSDGKSVSFGIAGKEIPVSYIAQEAPGTVVIDDTIRIPRKYDMEYILKRFNES | -1.03
35 | HMEFDYIVKVPDVRNKKIEDAGKILIDLGLKYTTESDYITQDLKVIDQFPLPGTEVSKGSIIDIYLEEDFK | 0.0944
36 | HMIDNKIIRSLRQKRNMTLEELAKKANISVSYLSEIELGKKQPSLETINKLSQALNISREGLI | -0.0409
37 | HMTQEQKQQISDQLRAYVEQKGSGNKAAASMNGVSSATISKVLAGKWETISEDMWRSIAAQTGH | 0.106
38 | HMRSFGRLRRRDSGRWEAAYVGPDARLYRAPATFEAKDDAIAWLSAERRMIELDTWIKPHDRASR | -1.11
39 | HMNNTIKFSVDTTNSGKRLDIFLAENIKQFTRSYLKKIISNNQVKLNNLVANSPSIKVKHSDLILINILE | -1.82
40 | HMGPSVGMTVGEMERDLIFRTLETVGDNRTKAADMLGISIRTLRNKLNEYREAGFEWPRKAG | 0.00867
41 | HMKIDEVSFAYIERTLFSMLGKLPTPVNKVIATIGEEKKETIWEVIRFLESENKLITNEDGTLQL | -1.55
42 | HMENPMIEQLKQFIEAQGLTQGQLAAKLGVSTATVNQYLQGKYKGDTAALDAKAAQLMARSREK | 0.103
43 | HMGETYTIPDVRGYTLEDAMELPEIKENGFTIIEGRQIVDADVPVGQIISQTPEAESIAKSNVKEITVNIS | 0.0323
44 | HMSINQIADKGYITRLIDNNANIKDVLYYDASSRILAIEDPKYMFYLKNTDWNQFAKEMGFKLE | -0.657
45 | HMNVKVYATIDGDNFKVSGLKPGSNVRVYSSNGSAVFEKKAGDSEMIIPAGAWTKGIYVISADDQSIKVT | -0.109
46 | HMKINYNEFLRRFLGEKEGDIIEMETGKRIGTHKGYWFHTIGQRKGLGLGGGPWFVIRKDIDENIIYVSHG | -1.06
47 | HMDNFDVVLTSPGDQKVQVIKAVRSITGLGLKEAKDLVDGAPNTVKEGVKKLDAEEMLKQLTEAGATGEL | 0.296
48 | HMTGLSAQILAKLRDNHGVLPVSDKSDPAVISNLFGVSKGNFKKAIGGLYKEGQIVIHADRIEL | -0.0576
49 | HMRKIKEVLRLKFETGFSHERIAAAVGVSKGAVTKYVQRAVAAGLGWPLAPERDDAALEALLFPH | ≥ 0.62
50 | HMPGRVITVMVNGKRVDLPFREEPYIFVDLFRYMDFDVERARGRIQLAINGKKAGYTDIIREGDSIEI | -0.562
51 | HMQNGNYVVQRQDSLWSIAARISGQTHQPIGEVMNHIKALNEHAFVGGNVNRLRTGTNLNLG | -0.156
52 | HMNEIESFSNTKNPFSLTFKTSKDSSYKVEASSNLKKWTTLSQIKGTGNPITFTESRRILFRKQYYRVTLS | -0.197
53 | HMNVESMVGKQGKVVVEIDNISAKGMIKVDGMEWTARSVDGEIIPKDSLVAVVSVEGVKAMVRKAE | 0.163
54 | HMSSANIKLDPLERQATQQIINNIKRKYPNATIENLQEVANDAIATMRQPEFSNYTVDKFVSYFLSM | -0.333
55 | HMVLSTRERMSNILATLKGGHFVNFSDLFTPEEGRLGVVVTFLAMLELIKESLLDIVQHEVLGPIHVKARV | -0.0744

Source: the domain aggregation screens of Martell et al. (2025)
